Laboratory results from PMC12019173, “Liganded magnetic nanoparticles for magnetic resonance imaging of α-synuclein” (NPJ Parkinson's Disease, 2025).
No end group written: not given here.

Tests used:
Details in all cases: both partners purified
[1] = target: T1, recombinant α-synuclein fibrils (human, UniProt P37840 1-140); test: SPR; α-syn fibrils on the SPR chip, LMNPs flowed over; LMNPs would not dissociate, no Kd calculated
[2] = target: T1, recombinant α-synuclein fibrils; test: SPR; short, sonicated α-syn fibrils immobilised on a CM5 chip, BiaCore T200; peptides 300 nM to 10 μM in PBS; steady state analysis, 1:1 binding model; apparent Kd
[3] = target: DLB brain-derived α-synuclein fibrils (human (endogenous in brain tissue), UniProt P37840 1-140); test: negative-stain transmission electron microscopy; brain-derived (sarkosyl-insoluble) fibrils mixed with R8-LMNPs (3 μg/mL), 4 °C overnight, 2% uranyl acetate
[4] = target: MSA brain-derived α-synuclein fibrils (human (endogenous in brain tissue), UniProt P37840 1-140); test: as above

Binder | binding result [1] | Kd [2] | binding result [3] | binding result [4]
GAVVWGVTAVKKGRKKRRQRRRPQ (other, also: covalently coupled to amine-functionalized dextran-coated iron oxide nanoparticle, two lysine linker; cell penetrating peptide; Multivalent; also called 24mer-LMNPs) [24mer-liganded magnetic nanoparticles] | binds |  |  | 
GAVVWGVTAVKKGRKKRRQRRRPQ (designed binder, two lysine linker; cell penetrating peptide; 24 residues; also called 24-residue peptide) [24mer] |  | 3700 nM |  | 
RVGGARVWGVRKKGRKKRRQRRRPQ (other, also: covalently coupled to amine-functionalized dextran-coated iron oxide nanoparticle, two-lysine linker; cell penetrating peptide; Multiple R8 ligands on each nanoparticle (multivalent, avidity); also called R8-LMNPs; R8-LMNP) [R8-liganded magnetic nanoparticles] | binds |  | binds | binds
RVGGARVWGVRKKGRKKRRQRRRPQ (designed binder, two-lysine linker; cell penetrating peptide (the methods call it the Tat peptide; detected with an anti-HIV-1 tat antibody); 25 residues; also called R8 peptide; source: synthetic peptide (Genscript or LifeTein)) [R8] |  | 470 nM |  | 
